According to US20170363644:

Target: Aβ42 oligomers, P05067

B1: factor XII (FXII) (protein)
chain: IPPWEAPKEHKYKAEEHTVVLTVTGEPCHFPFQYHRQLYHKCTHKGRPGPQPWCATTPNFDQDQRWGYCLEPKKVKDHCSKHSPCQKGGTCVNMPSGPHCLCPQHLTGNHCQKEKCFEPQLLRFFHKNEIWYRTEQAAVARCQCKGPDAHCQRLASQACRTNPCLHGGRCLEVEGHRLCHCPVGYTGAFCDVDTKASCYDGRGLSYRGLARTTLSGAPCQPWASEATYRNVTAEQARNWGLGGHAFCRNPDNDIRPWCFVLNRDRLSWEYCDLAQCQTPTQAAPPTPVSPRLHVPLMPAQPAPPKPQPTTRTPPQSQTPGALPAKREQPPSLTRNGPLSCGQRLRKSLSSMTRVVGGLVALRGAHPYIAALYWGHSFCAGSLIAPCWVLTAAHCLQDRPAPEDLTVVLGQERRNHSCEPCQTLAVRSYRLHEAFSPVSYQHDLALLRLQEDADGSCALLSPYVQPVCLPSGAARPSETTLCQVAGWGHQFEGAEEYASFLQEAQVPFLSLERCSAPDVHGSSILPGMLCAGFLEGGTDACQGDSGGPLVCEDQAAERRLTLQGIISWGSGCGDRNKPGVYTDVAYYLAWIREHTVS
With B1 the “FXII autoactivation, chromogenic substrate assay with purified FXII” value was “Aβ42 oligomers can directly induce FXII autoactivation” and the “FXII cleavage in human plasma (Western blot: FXII zymogen and FXIIa heavy chain)” value was “plasma incubated with Aβ42 had decreased FXII zymogen and increased FXIIa heavy chain compared to incubation with vehicle”.
